Measurements: publication PMC3971960 (Biochemistry, 2014)

T1: BlaI (Staphylococcus aureus, UniProt P0A042 1-126)
T1 sequence: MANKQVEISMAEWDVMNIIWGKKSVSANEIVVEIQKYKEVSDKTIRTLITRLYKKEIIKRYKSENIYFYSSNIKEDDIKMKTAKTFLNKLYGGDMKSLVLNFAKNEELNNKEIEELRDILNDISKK

T2: MecI (Staphylococcus aureus NRS70 (N315), UniProt P68261 1-123)
T2 sequence: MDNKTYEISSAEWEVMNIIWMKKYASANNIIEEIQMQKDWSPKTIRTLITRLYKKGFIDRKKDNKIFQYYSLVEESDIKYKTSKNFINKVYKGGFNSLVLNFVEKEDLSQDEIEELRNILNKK

B1: MecI (natural protein, S. aureus NRS70 (N315), UniProt P68261 1-123, looked up)
chain: T2 sequence
B2: mec dsDNA (mec operator) (dsDNA)
DNA 1: ATATAAGACTACATTTGTAGTATATTACAAATGTAGTATTT
DNA 2: AAATACTACATTTGTAATATACTACAAATGTAGTCTTATAT

Tests used:
[1] = molecular target: the molecule itself; experiment: MALDI mass spectrometry
[2] = molecular target: the molecule itself; experiment: AUC
[3] = molecular target: T1, BlaI; experiment: fluorescence anisotropy
[4] = molecular target: T2, MecI; experiment: fluorescence anisotropy

| Binder | stoichiometry N [1] | Kd [2] | stoichiometry N [2] | Kd [3] | Kd [4] |
| --- | --- | --- | --- | --- | --- |
| B1 | 5 | 0.3 ± 0.03 µM | 2 | – | – |
| B2 | – | – | – | 0.013 ± 0.006 µM | < 0.01 µM |
